Measured values published in IntAct's records for PubMed 17292836.

B1: 26S proteasome non-ATPase regulatory subunit 10 (Mus musculus), Q9Z2X2 (parent)
chain: MEGCVSNIMICNLAYSGKLDELKERILADKSLATRTDQDSRTALHWACSAGHTEIVEFLLQLGVPVNDKDDAGWSPLHIAASAGRDEIVKALLVKGAHVNAVNQNGCTPLHYAASKNRHEIAVMLLEGGANPDAKDHYDATAMHRAAAKGNLKMVHILLFYKASTNIQDTEGNTPLHLACDEERVEEAKFLVTQGASIYIENKEEKTPLQVAKGGLGLILKRLAESEEASM
partner: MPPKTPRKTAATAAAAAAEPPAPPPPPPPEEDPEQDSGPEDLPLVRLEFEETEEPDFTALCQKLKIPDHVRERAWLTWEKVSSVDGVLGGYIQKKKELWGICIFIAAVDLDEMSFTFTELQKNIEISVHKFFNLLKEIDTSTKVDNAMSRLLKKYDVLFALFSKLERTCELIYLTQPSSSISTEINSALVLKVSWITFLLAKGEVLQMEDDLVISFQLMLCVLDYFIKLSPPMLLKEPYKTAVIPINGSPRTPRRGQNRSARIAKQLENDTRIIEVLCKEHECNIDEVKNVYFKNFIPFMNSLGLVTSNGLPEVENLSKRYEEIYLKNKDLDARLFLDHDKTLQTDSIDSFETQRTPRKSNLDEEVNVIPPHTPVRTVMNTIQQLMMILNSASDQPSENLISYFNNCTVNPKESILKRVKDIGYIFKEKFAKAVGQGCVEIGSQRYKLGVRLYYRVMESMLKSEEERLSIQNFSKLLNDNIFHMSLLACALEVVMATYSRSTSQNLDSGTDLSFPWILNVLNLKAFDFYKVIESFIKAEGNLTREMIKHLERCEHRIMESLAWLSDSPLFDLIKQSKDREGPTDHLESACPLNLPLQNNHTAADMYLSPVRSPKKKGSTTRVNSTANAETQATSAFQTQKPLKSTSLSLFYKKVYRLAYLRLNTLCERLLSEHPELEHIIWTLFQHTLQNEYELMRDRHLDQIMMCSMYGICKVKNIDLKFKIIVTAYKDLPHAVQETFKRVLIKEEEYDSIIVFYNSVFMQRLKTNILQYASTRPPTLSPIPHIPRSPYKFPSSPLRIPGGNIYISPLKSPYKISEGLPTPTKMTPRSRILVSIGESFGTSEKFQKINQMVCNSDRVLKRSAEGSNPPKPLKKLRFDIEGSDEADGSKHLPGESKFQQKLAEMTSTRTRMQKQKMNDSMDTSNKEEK

Variants of: B1
Conditions: with rb_human RB1, P06400

Variant	effect of a mutation on the interaction
E182A	disrupting interaction
